From US20120329707A1 (INDIANA UNIVERSITY RESEARCH AND TECHNOLOGY, published 2012)
Numbered stars: 1 amine (or outer) side, 2 acyl side, 3 side chain; on linkers, the order of the positions; unused ones are H or OH. Square brackets hold non-standard residues; d marks the D form. Primed or numbered codes have the meaning given here. Side chains are listed from the residue outwards. Ends that are not written are not given here. * marks the point of attachment. 40K‑TE PEG = 40 kDa PEG covalently bound via thioether, formed by reaction of the free thiol of the peptide (Cys side chain) with an iodoacetic-functionalized PEG; 40K‑TE PEG″ = 40 kDa PEG bound to Cys via thioether made from an iodoacetyl-functionalised PEG; γGlu = O=C(O)[C@H](CCC(=O)[*:2])N[*:1]; Palmitoyl = CCCCCCCCCCCCCCCC(=O)*; Orn = NCCC[C@H](N)C(=O)O; Aib = CC(C)(N)C(=O)O

T1: GIP receptor
T1 sequence (P48546 whole entry, species assumed, looked up): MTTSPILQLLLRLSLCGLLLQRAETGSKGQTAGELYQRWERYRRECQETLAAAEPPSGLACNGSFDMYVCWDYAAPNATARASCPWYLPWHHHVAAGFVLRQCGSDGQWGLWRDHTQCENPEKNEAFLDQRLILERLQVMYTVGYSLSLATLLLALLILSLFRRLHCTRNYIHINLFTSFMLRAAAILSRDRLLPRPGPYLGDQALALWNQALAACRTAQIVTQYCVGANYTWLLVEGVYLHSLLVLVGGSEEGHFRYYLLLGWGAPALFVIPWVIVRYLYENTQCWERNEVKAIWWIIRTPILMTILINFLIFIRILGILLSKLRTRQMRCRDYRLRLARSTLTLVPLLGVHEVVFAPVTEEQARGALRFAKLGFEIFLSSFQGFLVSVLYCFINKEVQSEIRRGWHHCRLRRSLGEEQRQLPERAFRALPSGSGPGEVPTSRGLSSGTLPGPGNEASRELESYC

B1: peptide of SEQ ID NO: 33 (peptide)
peptide: H[Aib]QGTFTSDK([γGlu-γGlu-Palmitoyl])SKYLD[Aib]RAAQDFVQWLM[Orn]T[Orn]E-OH
modifications: N-terminus assumed
SMILES: CCCCCCCCCCCCCCCC(=O)N[C@@H](CCC(=O)N[C@@H](CCC(=O)NCCCC[C@H](NC(=O)[C@H](CC(=O)O)NC(=O)[C@H](CO)NC(=O)[C@@H](NC(=O)[C@H](Cc1ccccc1)NC(=O)[C@@H](NC(=O)CNC(=O)[C@H](CCC(N)=O)NC(=O)C(C)(C)NC(=O)[C@@H](N)Cc1c[nH]cn1)[C@@H](C)O)[C@@H](C)O)C(=O)N[C@@H](CO)C(=O)N[C@@H](CCCCN)C(=O)N[C@@H](Cc1ccc(O)cc1)C(=O)N[C@@H](CC(C)C)C(=O)N[C@@H](CC(=O)O)C(=O)NC(C)(C)C(=O)N[C@@H](CCCNC(=N)N)C(=O)N[C@@H](C)C(=O)N[C@@H](C)C(=O)N[C@@H](CCC(N)=O)C(=O)N[C@@H](CC(=O)O)C(=O)N[C@@H](Cc1ccccc1)C(=O)N[C@H](C(=O)N[C@@H](CCC(N)=O)C(=O)N[C@@H](Cc1c[nH]c2ccccc12)C(=O)N[C@@H](CC(C)C)C(=O)N[C@@H](CCSC)C(=O)N[C@@H](CCCN)C(=O)N[C@H](C(=O)N[C@@H](CCCN)C(=O)N[C@@H](CCC(=O)O)C(=O)O)[C@@H](C)O)C(C)C)C(=O)O)C(=O)O
B2: peptide of SEQ ID NO: 30 (peptide)
peptide: H[Aib]QGTFTSDK([γGlu-Palmitoyl])SKYLD[Aib]RAAQDFVQWLLDGRG-NH2
modifications: N-terminus assumed
SMILES: CCCCCCCCCCCCCCCC(=O)N[C@@H](CCC(=O)NCCCC[C@H](NC(=O)[C@H](CC(=O)O)NC(=O)[C@H](CO)NC(=O)[C@@H](NC(=O)[C@H](Cc1ccccc1)NC(=O)[C@@H](NC(=O)CNC(=O)[C@H](CCC(N)=O)NC(=O)C(C)(C)NC(=O)[C@@H](N)Cc1c[nH]cn1)[C@@H](C)O)[C@@H](C)O)C(=O)N[C@@H](CO)C(=O)N[C@@H](CCCCN)C(=O)N[C@@H](Cc1ccc(O)cc1)C(=O)N[C@@H](CC(C)C)C(=O)N[C@@H](CC(=O)O)C(=O)NC(C)(C)C(=O)N[C@@H](CCCNC(=N)N)C(=O)N[C@@H](C)C(=O)N[C@@H](C)C(=O)N[C@@H](CCC(N)=O)C(=O)N[C@@H](CC(=O)O)C(=O)N[C@@H](Cc1ccccc1)C(=O)N[C@H](C(=O)N[C@@H](CCC(N)=O)C(=O)N[C@@H](Cc1c[nH]c2ccccc12)C(=O)N[C@@H](CC(C)C)C(=O)N[C@@H](CC(C)C)C(=O)N[C@@H](CC(=O)O)C(=O)NCC(=O)N[C@@H](CCCNC(=N)N)C(=O)NCC(N)=O)C(C)C)C(=O)O
B3: peptide of SEQ ID NO: 36 (peptide)
peptide: H[Aib]QGTFTSDK([γGlu-Palmitoyl])SKYLD[Aib]RAAQDFVQWLKDGRG-NH2
modifications: N-terminus assumed
SMILES: CCCCCCCCCCCCCCCC(=O)N[C@@H](CCC(=O)NCCCC[C@H](NC(=O)[C@H](CC(=O)O)NC(=O)[C@H](CO)NC(=O)[C@@H](NC(=O)[C@H](Cc1ccccc1)NC(=O)[C@@H](NC(=O)CNC(=O)[C@H](CCC(N)=O)NC(=O)C(C)(C)NC(=O)[C@@H](N)Cc1c[nH]cn1)[C@@H](C)O)[C@@H](C)O)C(=O)N[C@@H](CO)C(=O)N[C@@H](CCCCN)C(=O)N[C@@H](Cc1ccc(O)cc1)C(=O)N[C@@H](CC(C)C)C(=O)N[C@@H](CC(=O)O)C(=O)NC(C)(C)C(=O)N[C@@H](CCCNC(=N)N)C(=O)N[C@@H](C)C(=O)N[C@@H](C)C(=O)N[C@@H](CCC(N)=O)C(=O)N[C@@H](CC(=O)O)C(=O)N[C@@H](Cc1ccccc1)C(=O)N[C@H](C(=O)N[C@@H](CCC(N)=O)C(=O)N[C@@H](Cc1c[nH]c2ccccc12)C(=O)N[C@@H](CC(C)C)C(=O)N[C@@H](CCCCN)C(=O)N[C@@H](CC(=O)O)C(=O)NCC(=O)N[C@@H](CCCNC(=N)N)C(=O)NCC(N)=O)C(C)C)C(=O)O
B4: peptide of SEQ ID NO: 31 (peptide)
peptide: H[Aib]QGTFTSDK([γGlu-γGlu-Palmitoyl])SKYLD[Aib]RAAQDFVQWLMKGRG-OH
modifications: N-terminus assumed
SMILES: CCCCCCCCCCCCCCCC(=O)N[C@@H](CCC(=O)N[C@@H](CCC(=O)NCCCC[C@H](NC(=O)[C@H](CC(=O)O)NC(=O)[C@H](CO)NC(=O)[C@@H](NC(=O)[C@H](Cc1ccccc1)NC(=O)[C@@H](NC(=O)CNC(=O)[C@H](CCC(N)=O)NC(=O)C(C)(C)NC(=O)[C@@H](N)Cc1c[nH]cn1)[C@@H](C)O)[C@@H](C)O)C(=O)N[C@@H](CO)C(=O)N[C@@H](CCCCN)C(=O)N[C@@H](Cc1ccc(O)cc1)C(=O)N[C@@H](CC(C)C)C(=O)N[C@@H](CC(=O)O)C(=O)NC(C)(C)C(=O)N[C@@H](CCCNC(=N)N)C(=O)N[C@@H](C)C(=O)N[C@@H](C)C(=O)N[C@@H](CCC(N)=O)C(=O)N[C@@H](CC(=O)O)C(=O)N[C@@H](Cc1ccccc1)C(=O)N[C@H](C(=O)N[C@@H](CCC(N)=O)C(=O)N[C@@H](Cc1c[nH]c2ccccc12)C(=O)N[C@@H](CC(C)C)C(=O)N[C@@H](CCSC)C(=O)N[C@@H](CCCCN)C(=O)NCC(=O)N[C@@H](CCCNC(=N)N)C(=O)NCC(=O)O)C(C)C)C(=O)O)C(=O)O

Molecular target: GLP-1 receptor
Test: cell-based or functional assay

Which “EC50 (nM) at GLP-1 receptor” value does the source give for B1 here?
The value was 0.019 nM.

Which “EC50 (nM) at GLP-1 receptor” value does the source give for H[Aib]QGTFTSDK([γGlu-γGlu-Palmitoyl])SKYLD[Aib]RAAQDFVQWLMDTK[dA]-OH [peptide of SEQ ID NO: 32] here?
Its value is 0.008 nM.

With H[Aib]QGTFTSDK([γGlu-γGlu-Palmitoyl])SKYLD[Aib]RAAQDFVQWLMKTK[dE]-OH [peptide of SEQ ID NO: 37] as the binder, how does the “EC50 (nM) at GLP-1 receptor” value read?
The value was 0.016 nM.

Which “EC50 (nM) at GLP-1 receptor” value does the source give for B2 here?
The value was 0.0082 nM.

With H[Aib]QGTFTSDYSKYLDERRA[Aib]EFVC(40K‑TE PEG″)WLLDGGPSSGAPPPS-NH2 [peptide of SEQ ID NO: 35] as the binder, how does the “EC50 (nM) at GLP-1 receptor” value read?
Its value is 0.085 nM.

For H[Aib]QGTFTSDYSKYLDEKRA[Aib]EFVC(40K‑TE PEG)WLMDT-NH2 [peptide of SEQ ID NO: 15], which “EC50 (nM) at GLP-1 receptor” value is on record?
The value was 0.071 nM.

B3 was tested. Which “EC50 (nM) at GLP-1 receptor” value did it give?
Its value is 0.003 nM.

B4 was tested. Which “EC50 (nM) at GLP-1 receptor” value did it give?
The value was 0.007 nM.

Molecular target: T1, GIP receptor
Test: cell-based or functional assay

How did the “EC50 (nM) at GIP receptor” value turn out when B1 was run?
The value was 3.96 nM.

Which “EC50 (nM) at GIP receptor” value does the source give for H[Aib]QGTFTSDK([γGlu-γGlu-Palmitoyl])SKYLD[Aib]RAAQDFVQWLMDTK[dA]-OH [peptide of SEQ ID NO: 32] here?
Its value is 2.08 nM.

For H[Aib]QGTFTSDK([γGlu-γGlu-Palmitoyl])SKYLD[Aib]RAAQDFVQWLMKTK[dE]-OH [peptide of SEQ ID NO: 37], which “EC50 (nM) at GIP receptor” value is on record?
Its value is 3.3 nM.

With B2 as the binder, how does the “EC50 (nM) at GIP receptor” value read?
Its value is 9.06 nM.

For H[Aib]QGTFTSDYSKYLDERRA[Aib]EFVC(40K‑TE PEG″)WLLDGGPSSGAPPPS-NH2 [peptide of SEQ ID NO: 35], which “EC50 (nM) at GIP receptor” value is on record?
Its value is 16.1 nM.

For H[Aib]QGTFTSDYSKYLDEKRA[Aib]EFVC(40K‑TE PEG)WLMDT-NH2 [peptide of SEQ ID NO: 15], which “EC50 (nM) at GIP receptor” value is on record?
The value was 316 nM.

How did the “EC50 (nM) at GIP receptor” value turn out when B3 was run?
The value was 0.47 nM.

Which “EC50 (nM) at GIP receptor” value does the source give for B4 here?
The value was 2.34 nM.

Molecular target: glucagon receptor
Test: cell-based or functional assay

Which “EC50 (nM) at glucagon receptor” value does the source give for B1 here?
The value was 0.023 nM.

Which “EC50 (nM) at glucagon receptor” value does the source give for H[Aib]QGTFTSDK([γGlu-γGlu-Palmitoyl])SKYLD[Aib]RAAQDFVQWLMDTK[dA]-OH [peptide of SEQ ID NO: 32] here?
Its value is 0.007 nM.

Which “EC50 (nM) at glucagon receptor” value does the source give for H[Aib]QGTFTSDK([γGlu-γGlu-Palmitoyl])SKYLD[Aib]RAAQDFVQWLMKTK[dE]-OH [peptide of SEQ ID NO: 37] here?
Its value is 0.018 nM.

For B2, which “EC50 (nM) at glucagon receptor” value is on record?
Its value is 0.933 nM.

For H[Aib]QGTFTSDYSKYLDERRA[Aib]EFVC(40K‑TE PEG″)WLLDGGPSSGAPPPS-NH2 [peptide of SEQ ID NO: 35], which “EC50 (nM) at glucagon receptor” value is on record?
The value was 1.18 nM.

Which “EC50 (nM) at glucagon receptor” value does the source give for H[Aib]QGTFTSDYSKYLDEKRA[Aib]EFVC(40K‑TE PEG)WLMDT-NH2 [peptide of SEQ ID NO: 15] here?
The value was 1.1 nM.

How did the “EC50 (nM) at glucagon receptor” value turn out when B3 was run?
The value was 0.028 nM.

B4 was tested. Which “EC50 (nM) at glucagon receptor” value did it give?
The value was 0.016 nM.
